Results as given in article doi:10.1101/2022.01.24.477625 (bioRxiv, 2022).

Molecular target: SARS-CoV-1 spike protein (FL-GCN4-Avi-His, biotinylated) (SARS-CoV-1 (SARS-CoV), strain , UniProt P59594, stabilised, biotin on the Avi tag)
Test: BLI

B1: CV27 IgG (antibody, V domains shown)
VH: QVQLVESGGGVVQPGRSLRLSCAASGFTFSSYAMHWVRQAPGKGLEWVALISYDGSNKYYADSVKGRFTISRDNSKNTLYLQMNSLRAEDTAVYYCARSFGGSYYYGMDVWGQGTTVTVSS
VL: QSALTQPASVSGSPGQSITISCTGTSSDVGGYNYVSWYQQHPGKAPKLMIYDVSNRPSGVSNRFSGSKSGNTASLTISGLQAEDEADYYCSSYTSSSTPYVFGTGTKVTVL
binding result: binds
